Measured values reported in patent US20110124071A1, “METHODS AND COMPOSITIONS FOR PRODUCING HYDROCARBONS” (priority 2009, published 2011).

B1: PMN2A—1863: Prochlorococcus mariunus NATL2A putative decarbonylase (SEQ ID NO: 21) (protein, listed as Prochlorococcus marinus)
chain: MQAFASNNLTVEKEELSSNSLPDFTSESYKDAYSRINAVVIEGEQEAYSNFLDLAKLIPEHADELVRLGKMEKKHMNGFCACGRNLAVKPDMPFAKTFFSKLHNNFLEAFKVGDTTTCLLIQCILIESFAISAYHVYIRVADPFAKRITEGVVQDEYLHLNYGQEWLKANLETVKKDLMRANKENLPLIKSMLDEVSNDAEVLHMDKEELMEEFMIAYQDSLLEIGLDNREIARMALAAVI
B2: ATCC51142 cce—0778: Cyanothece sp. ATCC51142 putative decarbonylase (SEQ ID NO: 27) (protein, listed as Cyanothece sp.)
chain: MQELALRSELDFNSETYKDAYSRINAIVIEGEQEAYQNYLDMAQLLPEDEAELIRLSKMENRHKKGFQACGKNLNVTPDMDYAQQFFAELHGNFQKAKAEGKIVTCLLIQSLIIEAFAIAAYNIYIPVADPFARKITEGVVKDEYTHLNFGEVWLKEHFEASKAELEDANKENLPLVWQMLNQVEKDAEVLGMEKEALVEDFMISYGEALSNIGFSTREIMKMSAYGLRAA
B3: Cyan7425—0398: Cyanothece sp. PCC7425 putative decarbonylase (SEQ ID NO: 29) (protein, listed as Cyanothece sp.)
chain: MPQVQSPSAIDFYSETYQDAYSRIDAIVIEGEQEAHDNYLKLTELLPDCQEDLVRLAKMEARHKKGFEACGRNLKVTPDMEFAQQFFADLHNNFQKAAAANKIATCLVIQALIIECFAIAAYNIYIPVADDFARKITENVVKDEYTHLNFGEEWLKANFDSQREEVEAANRENLPIVWRMLNQVETDAHVLGMEKEALVESFMIQYGEALENIGFSTREIMRMSVYGLSAA
B4: PMM0532: Prochlorococcus marinus CCMP1986 putative decarbonylase (SEQ ID NO: 19) (protein, listed as Prochlorococcus marinus)
chain: MQTLESNKKTNLENSIDLPDFTTDSYKDAYSRINAIVIEGEQEAHDNYISLATLIPNELEELTKLAKMELKHKRGFTACGRNLGVQADMIFAKEFFSKLHGNFQVALSNGKTTTCLLIQAILIEAFAISAYHVYIRVADPFAKKITQGVVKDEYLHLNYGQEWLKENLATCKDELMEANKVNLPLIKKMLDQVSEDASVLAMDREELMEEFMIAYQDTLLEIGLDNREIARMAMAAIV
B5: alr5283: Nostoc sp. PCC7210 putative decarbonylase (SEQ ID NO: 7) (protein, listed as Nostoc sp.)
chain: MQQVAADLEIDFKSEKYKDAYSRINAIVIEGEQEAYENYIQLSQLLPDDKEDLIRLSKMESRHKKGFEACGRNLQVSPDMEFAKEFFAGLHGNFQKAAAEGKIVTCLLIQSLIIECFAIAAYNIYIPVADDFARKITEGVVKDEYSHLNFGEVWLQKNFAQSKAELEEANRHNLPIVWKMLNQVADDAAVLAMEKEALVEDFMIQYGEALSNIGFTTRDIMRMSAYGLTAA
B6: RS9917—12945: Synechococcus sp. RS9917 putative decarbonylase (SEQ ID NO: 25) (protein, listed as Synechococcus sp.)
chain: MTQLDFASAAYREAYSRINGVVIVGEGLANRHFQMLARRIPADRDELQRLGRMEGDHASAFVGCGRNLGVVADLPLARRLFQPLHDLFKRHDHDGNRAECLVIQGLIVECFAVAAYRHYLPVADAYARPITAAVMNDESEHLDYAETWLQRHFDQVKARVSAVVVEALPLTLAMLQSLAADMRQIGMDPVETLASFSELFREALESVGFEAVEARRLLMRAAARMV
B7: tll1313: Thermosynechococcus elongatus BP-1 putative decarbonylase (SEQ ID NO: 11) (protein, listed as Thermosynechococcus elongatus)
chain: MTTATATPVLDYHSDRYKDAYSRINAIVIEGEQEAHDNYIDLAKLLPQHQEELTRLAKMEARHKKGFEACGRNLSVTPDMEFAKAFFEKLRANFQRALAEGKTATCLLIQALIIESFAIAAYNIYIPMADPFARKITESVVKDEYSHLNFGEIWLKEHFESVKGELEEANRANLPLVWKMLNQVEADAKVLGMEKDALVEDFMIQYSGALENIGFTTREIMKMSVYGLTGA
B8: Cyan7425—2986: Cyanothece sp. PCC7425 putative decarbonylase (SEQ ID NO: 31) (protein, listed as Cyanothece sp.)
chain: MSDCATNPALDYYSETYRNAYRRVNGIVIEGEKQAYDNFIRLAELLPEYQAELTRLAKMEARHQKSFVACGQNLKVSPDLDFAAQFFAELHQIFASAANAGQVATCLVVQALIIECFAIAAYNTYLPVADEFARKVTASVVQDEYSHLNFGEVWLQNAFEQCKDEIITANRLALPLIWKMLNQVTGELRILGMDKASLVEDFSTRYGEALGQIGFKLSEILSLSVQGLQAVTP
B9: PM1231: Prochlorococcus marinus MIT9313 putative decarbonylase (SEQ ID NO: 17) (protein, listed as Prochlorococcus marinus)
chain: MPTLEMPVAAVLDSTVGSSEALPDFTSDRYKDAYSRINAIVIEGEQEAHDNYIAIGTLLPDHVEELKRLAKMEMRHKKGFTACGKNLGVEADMDFAREFFAPLRDNFQTALGQGKTPTCLLIQALLIEAFAISAYHTYIPVSDPFARKITEGVVKDEYTHLNYGEAWLKANLESCREELLEANRENLPLIRRMLDQVAGDAAVLQMDKEDLIEDFLIAYQESLTEIGFNTREITRMAAAALVS
B10: gll3146: Gloeobacter violaceus PCC7421 putative decarbonylase (SEQ ID NO: 15) (protein, listed as Gloeobacter violaceus)
chain: VNRTAPSSAALDYRSDTYRDAYSRINAIVLEGEREAHANYLTLAEMLPDHAEALKKLAAMENRHFKGFQSCARNLEVTPDDPFARAYFEQLDGNFQQAAAEGDLTTCMVIQALIIECFAIAAYNVYIPVADAFARKVTEGVVKDEYTHLNFGQQWLKERFVTVREGIERANAQNLPIVWRMLNAVEADTEVLQMDKEAIVEDFMIAYGEALGDIGFSMRDVMKMSARGLASAPRQ
B11: RS991709941: Synechococcus sp. RS9917 putative decarbonylase (SEQ ID NO: 23) (protein, listed as Synechococcus sp.)
chain: MPTLETSEVAVLEDSMASGSRLPDFTSEAYKDAYSRINAIVIEGEQEAHDNYIALGTLIPEQKDELARLARMEMKHMKGFTSCGRNLGVEADLPFAKEFFAPLHGNFQAALQEGKVVTCLLIQALLIEAFAISAYHIYIPVADPFARKITEGVVKDEYTHLNYGQEWLKANFEASKDELMEANKANLPLIRSMLEQVAADAAVLQMEKEDLIEDFLIAYQEALCEIGFSSRDIARMAAAALAV

Columns and labels:
[1] = system: E. coli MG1655; test: Coexpression of putative decarbonylase with S. elongatus PCC7942 orf1594 in E. coli, GC-MS of extracts; type: cell-based; details: coexpressed with S. elongatus PCC7942 orf1594 in E. coli MG1655, M9 minimal media
Description: After a 1 μl splitless injection (inlet temperature held at 300° C.) onto the GC/MS column, the oven was held at 100° C. for 3 mins. The temperature was ramped up to 320° C. at a rate of 20° C./min. The oven was held at 320° C. for an additional 5 min. The flow rate of the carrier gas helium was 1.3 ml/min. The MS quadrapole scanned from 50 to 550 m/z. Retention times and fragmentation patterns of product peaks were compared with authentic references to confirm peak identity.
The genomic DNA encoding Synechococcus elongatus PCC7942 orf1594 (YP—400611; putative aldehyde-generating enzyme) (SEQ ID NO: 65) was amplified and cloned into the NcoI and EcoRI sites of vector OP-80 (pCL1920 derivative) under the control of the Ptrc promoter. The resulting construct (“OP80-PCC7942—1594”) was transformed into E. coli MG1655 and the cells were grown at 37° C. in M9 minimal media with 1% (w/v) glucose as carbon source and supplemented with 100 μg/ml spectinomycin. When the culture reached OD600 of 0.8-1.0, it was induced with 1 mM IPTG and cells were grown for an additional 18-20 h at 37° C. Cells from 0.5 ml of culture were extracted with 0.5 ml of ethyl acetate. After sonication for 60 min, the sample was centrifuged at 15,000 rpm for 5 min. The solvent layer was analyzed by GC-MS as described in Example 1.
The genomic DNA encoding Synechococcus elongatus PCC7942 orf1593 (YP—400610; putative decarbonylase) (SEQ ID NO: 1) was amplified and cloned into the NdeI and XhoI sites of vector OP-183 (pACYC derivative) under the control of the Ptrc promoter. The resulting construct was cotransformed with OP80-PCC7942—1594 into E. coli MG1655 and the cells were grown at 37° C. in M9 minimal media supplemented with 100 μg/ml spectinomycin and 100 μg/ml carbenicillin. The cells were cultured and extracted as in Example 3 and analyzed by GC-MS as described in Example 1. […]

[2] = system: E. coli MG1655 ΔfadD lacZ::Ptrc-′tesA; test: Heterologous expression in a fatty aldehyde-producing E. coli strain with MSMEG—5739, GC-MS; type: cell-based; details: decarbonylase coexpressed with carboxylic acid reductase MSMEG—5739

Row | Molecule | fatty aldehyde decarbonylase activity (alkane/alkene production) [1] | conversion of fatty aldehydes provided by MSMEG—5739 to alkanes [2]
1 | PCC7942—1593: Synechococcus elongatus PCC7942 orf1593 putative decarbonylase (SEQ ID NO: 1) | active fatty aldehyde decarbonylase | 
2 | B1 | active fatty aldehyde decarbonylase | 
3 | B2 | active fatty aldehyde decarbonylase | 
4 | B3 | active fatty aldehyde decarbonylase | 
5 | B4 | active fatty aldehyde decarbonylase | converted fatty aldehydes provided by MSMEG—5739 to the corresponding alkanes
6 | B5 | active fatty aldehyde decarbonylase | converted fatty aldehydes provided by MSMEG—5739 to the corresponding alkanes
7 | B6 | active fatty aldehyde decarbonylase | converted fatty aldehydes provided by MSMEG—5739 to the corresponding alkanes
8 | B7 | active fatty aldehyde decarbonylase | 
9 | B8 | active fatty aldehyde decarbonylase | 
10 | B9 | active fatty aldehyde decarbonylase | 
11 | B10 | active fatty aldehyde decarbonylase | converted fatty aldehydes provided by MSMEG—5739 to the corresponding alkanes
12 | B11 | active fatty aldehyde decarbonylase | converted fatty aldehydes provided by MSMEG—5739 to the corresponding alkanes
